The source of these data is article PMC3679522 (eLife, 2013).

The chains are these.
B1: GST-Nup100(1–610) (domain or fragment, S. cerevisiae, UniProt Q02629 1-610, looked up)
chain: MFGNNRPMFGGSNLSFGSNTSSFGGQQSQQPNSLFGNSNNNNNSTSNNAQSGFGGFTSAAGSNSNSLFGNNNTQNNGAFGQSMGATQNSPFGSLNSSNASNGNTFGGSSSMGSFGGNTNNAFNNNSNSTNSPFGFNKPNTGGTLFGSQNNNSAGTSSLFGGQSTSTTGTFGNTGSSFGTGLNGNGSNIFGAGNNSQSNTTGSLFGNQQSSAFGTNNQQGSLFGQQSQNTNNAFGNQNQLGGSSFGSKPVGSGSLFGQSNNTLGNTTNNRNGLFGQMNSSNQGSSNSGLFGQNSMNSSTQGVFGQNNNQMQINGNNNNSLFGKANTFSNSASGGLFGQNNQQQGSGLFGQNSQTSGSSGLFGQNNQKQPNTFTQSNTGIGLFGQNNNQQQQSTGLFGAKPAGTTGSLFGGNSSTQPNSLFGTTNVPTSNTQSQQGNSLFGATKLTNMPFGGNPTANQSGSGNSLFGTKPASTTGSLFGNNTASTTVPSTNGLFGNNANNSTSTTNTGLFGAKPDSQSKPALGGGLFGNSNSNSSTIGQNKPVFGGTTQNTGLFGATGTNSSAVGSTGKLFGQNNNTLNVGTQNVPPVNNTTQNALLGTTAVPSLQQAPVTN
notes: Nup100 of budding yeast, GLFG-type FG-repeat region, residues 1-610; source: E. coli BL21(DE3), purified (GSH beads, eluted with glutathione, dialysed); not shown: GST, N-terminal, kept
B2: importin β from S. cerevisiae (ScKap95) (natural protein)
chain: MSTAEFAQLLENSILSPDQNIRLTSETQLKKLSNDNFLQFAGLSSQVLIDENTKLEGRILAALTLKNELVSKDSVKTQQFAQRWITQVSPEAKNQIKTNALTALVSIEPRIANAAAQLIAAIADIELPHGAWPELMKIMVDNTGAEQPENVKRASLLALGYMCESADPQSQALVSSSNNILIAIVQGAQSTETSKAVRLAALNALADSLIFIKNNMEREGERNYLMQVVCEATQAEDIEVQAAAFGCLCKIMSLYYTFMKPYMEQALYALTIATMKSPNDKVASMTVEFWSTICEEEIDIAYELAQFPQSPLQSYNFALSSIKDVVPNLLNLLTRQNEDPEDDDWNVSMSAGACLQLFAQNCGNHILEPVLEFVEQNITADNWRNREAAVMAFGSIMDGPDKVQRTYYVHQALPSILNLMNDQSLQVKETTAWCIGRIADSVAESIDPQQHLPGVVQACLIGLQDHPKVATNCSWTIINLVEQLAEATPSPIYNFYPALVDGLIGAANRIDNEFNARASAFSALTTMVEYATDTVAETSASISTFVMDKLGQTMSVDENQLTLEDAQSLQELQSNILTVLAAVIRKSPSSVEPVADMLMGLFFRLLEKKDSAFIEDDVFYAISALAASLGKGFEKYLETFSPYLLKALNQVDSPVSITAVGFIADISNSLEEDFRRYSDAMMNVLAQMISNPNARRELKPAVLSVFGDIASNIGADFIPYLNDIMALCVAAQNTKPENGTLEALDYQIKVLEAVLDAYVGIVAGLHDKPEALFPYVGTIFQFIAQVAEDPQLYSEDATSRAAVGLIGDIAAMFPDGSIKQFYGQDWVIDYIKRTRSGQLFSQATKDTARWAREQQKRQLSL
notes: Kap95 (importin β) of S. cerevisiae, PCR-amplified ORF

Assay [1] deals with B2. The assay can be described thus: pull-down; GST-FG fusions pre-bound to GSH beads; soluble protein (100-500 pmol) pre-mixed with 200 μg bacterial extract proteins in 0.5 ml pulldown buffer (10 mM HEPES pH 7.5, 160 mM KOAc, 1 mM MgOAc2, 1 mM DTT, 0.01% Triton X-100); 20 min, room temperature; eluted with 1 M NaCl, then SDS-sample buffer; SDS-PAGE, SYPRO Ruby. Conditions: both partners purified.

Assay [2] deals with ZZ-HsRanQ69L (human, UniProt P62826 1-216, Q69L). The assay can be described thus: SEC; 2 μM of each protein, 20 min on ice, Superdex 200 10/300 in Ran binding buffer (10 mM HEPES pH 7.4, 150 mM NaCl, 2 mM MgOAc2, 1 mM DTT); fractions by SDS-PAGE (SYPRO Ruby) and Western blot against the ZZ-tag. To be noted: both partners purified. (In general: In gel filtration, larger molecules generally elute earlier.)

As to B1, the binding result in assay [1] is “binds”.

Take B2: the binding result in assay [2] is “binds”.
